Results published in patent publication US9540620B2, “Methods and compositions for modulating G-alpha-Q signaling” (The University of North Carolina at Chapel Hill, priority 2012, dated 2017).

T1: Gαq (Homo sapiens, UniProt P50148)
T1 sequence (P50148 1-359): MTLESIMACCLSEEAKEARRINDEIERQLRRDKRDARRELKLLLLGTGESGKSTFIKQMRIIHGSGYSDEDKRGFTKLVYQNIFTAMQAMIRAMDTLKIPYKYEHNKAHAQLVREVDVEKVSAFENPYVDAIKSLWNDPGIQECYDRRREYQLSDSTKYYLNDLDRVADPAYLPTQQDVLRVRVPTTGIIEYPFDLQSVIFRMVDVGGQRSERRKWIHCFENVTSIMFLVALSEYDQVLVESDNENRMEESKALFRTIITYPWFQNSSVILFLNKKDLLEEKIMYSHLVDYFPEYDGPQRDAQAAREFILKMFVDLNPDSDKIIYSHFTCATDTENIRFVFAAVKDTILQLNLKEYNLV

T2: activated Gαq (Homo sapiens, UniProt P50148)
T2 sequence (P50148 1-359): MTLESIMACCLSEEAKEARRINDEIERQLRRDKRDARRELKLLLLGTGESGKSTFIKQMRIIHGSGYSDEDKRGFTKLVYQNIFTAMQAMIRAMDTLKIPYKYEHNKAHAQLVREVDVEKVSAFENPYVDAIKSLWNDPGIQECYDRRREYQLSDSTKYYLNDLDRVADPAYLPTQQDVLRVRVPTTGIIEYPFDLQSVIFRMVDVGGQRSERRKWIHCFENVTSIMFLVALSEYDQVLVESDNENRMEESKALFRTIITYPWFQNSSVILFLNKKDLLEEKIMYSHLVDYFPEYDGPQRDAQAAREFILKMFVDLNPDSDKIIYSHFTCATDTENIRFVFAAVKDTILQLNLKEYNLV


Tests used:
[1] = system: Gαq downstream of the muscarinic receptor; test: Muscarinic receptor-dependent activation of PLC-β, [3H]inositol phosphate accumulation in HEK293 cells; type: cell-based; settings: peptide for 30 minutes (FIG. 9)
Protocol: FIG. 9. Muscarinic receptor-dependent activation of PLC-β was determined by quantification of [^3H]inositol phosphate accumulation. Where indicated, HEK293 cells were treated with Palm-27-mer peptide for 30 minutes.
Since a major tenet of this invention is to interdict Gαq signaling in cells with peptidomimetics, it will be necessary to efficiently introduce peptides derived from this scaffold into cells. […] Moreover, once introduced, this peptide prevented the stimulation of PLC activity by Gαq downstream of the P2Y6 receptor and/or muscarinic receptor, a G protein-coupled receptor selective for Gαq (FIG. 7C and FIG. 9).
Since a major tenet of this work is to downregulate G-alpha-q signaling in cells with peptidomimetics, peptides derived from this scaffold have been efficiently delivered into cells.

[2] = molecular target: T1, Gαq; test: Fluorescence polarization competition: unlabeled PLC-β3 against TAMRA-labeled peptide for Gαq; type: binding; settings: TAMRA-27-mer 400 nM, Gαq 800 nM
Protocol: FIGS. 3A and 3B. TAMRA-27-mer and PLC-β3 directly compete for Gαq. (FIG. 3A) Increasing concentrations of PLC-β3 were added to a solution of TAMRA-27-mer (400 nM) and Gαq (800 nM). The IC50 value is derived from three independent experiments. (FIG. 3B) Phospholipase activity of PLC-β3 activated by Gαq using lipid vesicles and inhibited by increasing concentrations of TAMRA-27-mer.
FIGS. 6A-C. Quantification of Gαq binding to peptides corresponding to the HTH of PLβ3. […] The structures of PLCβ3 (3 OHM) and p63RhoGEF (2RGN) bound to Gαq were superimposed and a single Gαq is shown. Immediately below is shown the sequence alignment of PLCβ3 (SEQ ID NO:37) and p63RhoGEF (SEQ ID NO:41) encompassing the helix-turn-helix. Underlined residues are labeled in the structure. […] (FIG. 6C) Increasing concentrations of unlabeled PLC-β3 were added to a solution of labeled 25-mer (400 nM) and Gαq (4 μM). KD and IC50 values were derived from three independent experiments.
Fluorescence polarization will be used to monitor disruption of complex formation between the 27-mer and active Gαq to identify compounds that directly compete with the complex. It is expected that the majority of these compounds will sit within the canonical effector-binding site of Gαq to prevent the binding of peptide—and by extension, prevent the binding of effectors. However, before using this assay format to identify inhibitors of complex formation it was necessary to insure that peptides corresponding to the HTH of PLC-β3 bound to Gαq. […] These experiments strongly support that peptides corresponding to the HTH of PLC-β3 directly bind to the effector pocket of Gαq and can be used as surrogates of effectors in assays of complex formation with active Gαq.
The most promising peptide consisted of 25 residues (TAMRA-25-mer) spanning the entire HTH and bound to G-alpha-q with appreciable affinity (Kd˜6 microMolar).

[3] = molecular target: T2, activated Gαq; settings: full-length protein; read-out: dissociation constant (KD) for activated Gαq; cited from earlier work

competition with the 27-mer for binding to Gαq [2] | Molecule | stimulation of PLC activity by Gαq downstream of the muscarinic receptor [1] | Kd [3] [nM]
– | Palm-PEG-PEG-HQDYAEALANPIKHVSL-Nle-DQRARQLAA (HQDYAEALANPIKHVSLXDQRARQLAA; non-natural residues) [Palm-27-mer, 27-mer HTH peptide with a palmityl lipid linked through PEG linkers] | prevent the stimulation of PLC activity | –
could effectively compete | PLC-β3: full-length phospholipase C beta 3, effector of Gαq, used as unlabeled competitor (protein) AGAQPGVHALQLEPPTVVETLRRGSKFIKWDEETSSRNLVTLRVDPNGFFLYWTGPNMEVDTLDISSIRDTRTGRYARLPKDPKIREVLGFGGPDARLEEKLMTVVSGPDPVNTVFLNFMAVQDDTAKVWSEELFKLAMNILAQNASRNTFLRKAYTKLKLQVNQDGRIPVKNILKMFSADKKRVETALESCGLKFNRSESIRPDEFSLEIFERFLNKLCLRPDIDKILLEIGAKGKPYLTLEQLMDFINQKQRDPRLNEVLYPPLRPSQARLLIEKYEPNQQFLERDQMSMEGFSRYLGGEENGILPLEALDLSTDMTQPLSAYFINSSHNTYLTAGQLAGTSSVEMYRQALLWGCRCVELDVWKGRPPEEEPFITHGFTMTTEVPLRDVLEAIAETAFKTSPYPVILSFENHVDSAKQQAKMAEYCRSIFGDALLIEPLDKYPLAPGVPLPSPQDLMGRILVKNKKRHRPSAGGPDSAGRKRPLEQSNSALSESSAATEPSSPQLGSPSSDSCPGLSNGEEVGLEKPSLEPQKSLGDEGLNRGPYVLGPADREDEEEDEEEEEQTDPKKPTTDEGTASSEVNATEEMSTLVNYIEPVKFKSFEAARKRNKCFEMSSFVETKAMEQLTKSPMEFVEYNKQQLSRIYPKGTRVDSSNYMPQLFWNVGCQLVALNFQTLDVAMQLNAGVFEYNGRSGYLLKPEFMRRPDKSFDPFTEVIVDGIVANALRVKVISGQFLSDRKVGIYVEVDMFGLPVDTRRKYRTRTSQGNSFNPVWDEEPFDFPKVVLPTLASLRIAAFEEGGKFVGHRILPVSAIRSGYHYVCLRNEANQPLCLPALLIYTEASDYIPDDHQDYAEALINPIKHVSLMDQRARQLAALIGESEAQAGQETCQDTQSQQLGSQPSSNPTPSPLDASPRRPPGPTTSPASTSLSSPGQRDDLIASILSEVAPTPLDELRGHKALVKLRSRQERDLRELRKKHQRKAVTLTRRLLDGLAQAQAEGRCRLRPGALGGAADVEDTKEGEDEAKRYQEFQNRQVQSLLELREAQVDAEAQRRLEHLRQALQRLREVVLDANTTQFKRLKEMNEREKKELQKILDRKRHNSISEAKMRDKHKKEAELTEINRRHITESVNSIRRLEEAQKQRHDRLVAGQQQVLQQLAEEEPKLLAQLAQECQEQRARLPQEIRRSLLGEMPEGLGDGPLVACASNGHAPGSSGHLSGADSESQEENTQL | – | 10 to 100
